Source: publication PMC11059244

Conditions: phosphorylation at S405

Row | Substance | degradation_or_half_life | other | expression_or_secretion
1 | YAP: S405A | decreases | increases | 
2 | YAP: S405D phosphomimetic |  | decreases | 
3 | YAP: ponatinib (MAP3K3 inhibitor) |  |  | decreases
